Results published in article PMC6501848 (Nature cell biology, 2019).

B1: human CAP2 with C-terminal GFP and Strep-tag II (natural protein)
chain: MANMQGLVERLERAVSRLESLSAESHRPPGNCGEVNGVIAGVAPSVEAFDKLMDSMVAEFLKNSRILAGDVETHAEMVHSAFQAQRAFLLMASQYQQPHENDVAALLKPISEKIQEIQTFRERNRGSNMFNHLSAVSESIPALGWIAVSPKPGPYVKEMNDAATFYTNRVLKDYKHSDLRHVDWVKSYLNIWSELQAYIKEHHTTGLTWSKTGPVASTVSAFSVLSSGPGLPPPPPPLPPPGPPPLFENEGKKEESSPSRSALFAQLNQGEAITKGLRHVTDDQKTYKNPSLRAQGGQTQSPTKSHTPSPTSPKSYPSQKHAPVLELEGKKWRVEYQEDRNDLVISETELKQVAYIFKCEKSTIQIKGKVNSIIIDNCKKLGLVFDNVVGIVEVINSQDIQIQVMGRVPTISINKTEGCHIYLSEDALDCEIVSAKSSEMNILIPQDGDYREFPIPEQFKTAWDGSKLITEPAEIMA
B2: INF2-Cterm labeled with tetramethylrhodamine (domain or fragment)
chain: not shown
modifications: tetramethylrhodamine-succinimide (TMR) label

Assays:
AUC = target: the molecule itself; experiment: AUC
[1] = target: fluorescently-labeled rabbit skeletal muscle actin (TMR-actin) (rabbit, UniProt P68135 1-377, TAMRA label (TAMRA NHS ester)); experiment: pull-down
[2] = target: chicken skeletal muscle actin (chicken, UniProt P68139 1-377); experiment: pull-down
[3] = target: rabbit skeletal muscle actin (rabbit, UniProt P68135 1-377); experiment: pull-down
INF2-Nterm = INF2-Nterm (human, UniProt Q27J81 1-420); experiment: fluorescence polarisation
Chain of INF2-Nterm (Q27J81 1-420): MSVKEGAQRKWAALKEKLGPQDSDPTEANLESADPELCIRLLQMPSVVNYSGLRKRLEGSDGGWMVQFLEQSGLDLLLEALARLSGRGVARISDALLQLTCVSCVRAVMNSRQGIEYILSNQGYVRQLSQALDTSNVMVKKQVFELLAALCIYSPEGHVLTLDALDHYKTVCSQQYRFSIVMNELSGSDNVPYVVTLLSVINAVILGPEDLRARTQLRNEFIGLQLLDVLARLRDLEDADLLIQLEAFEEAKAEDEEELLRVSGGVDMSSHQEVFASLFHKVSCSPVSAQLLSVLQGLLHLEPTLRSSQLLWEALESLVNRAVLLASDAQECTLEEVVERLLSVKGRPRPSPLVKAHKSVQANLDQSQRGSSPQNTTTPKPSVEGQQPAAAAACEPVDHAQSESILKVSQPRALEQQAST

Row | Binder | stoichiometry N (AUC) | binding result [1] | binding result [2] | binding result [3] | Kd (INF2-Nterm)
1 | B1 | 6 | binds | binds | binds | 
2 | B2 |  |  |  |  | ~28 µM
